{
  "source": "patent US20230390320A1",
  "about": "(RZNOMICS, published 2023)",
  "binders": {"B1": {"name": "scFvPD1(I) (scFv, not shown: small tags and cut ends)", "scFv": "QVQLVQSGAEVKKPGASVKVSCKASGYTFTAQYMHWVRQAPGQGLEWMGIINPSGGETGYAQKFQGRVTMTRDTSTSTVYMELSSLRSEDTAVYYCAKEGVADGYGLVDVWGQGTMVTVSSGGGGSGGGGSGGGGSGGGGSEIVLTQSPATLSLSPGERATLSCRASQSVSSYLAWYQQKPGQAPRLLIYDASKRATGIPARFSGSGSGTDFTLTISSLEPEDFAVYYCDQRNNWPLTFGGGTKVEIK", "notes": "also called single chain variable fragment PD1; PD1scFv"}},
  "key": {"human PD1 (hPD1)": {"molecular_target": "T1, human PD1 (hPD1) (human, UniProt Q15116 25-288, limits assumed)", "T1 construct": "Stood in the ELISA as a lysate of cells expressing hPD1", "T1 sequence (Q15116 25-288 limits assumed)": "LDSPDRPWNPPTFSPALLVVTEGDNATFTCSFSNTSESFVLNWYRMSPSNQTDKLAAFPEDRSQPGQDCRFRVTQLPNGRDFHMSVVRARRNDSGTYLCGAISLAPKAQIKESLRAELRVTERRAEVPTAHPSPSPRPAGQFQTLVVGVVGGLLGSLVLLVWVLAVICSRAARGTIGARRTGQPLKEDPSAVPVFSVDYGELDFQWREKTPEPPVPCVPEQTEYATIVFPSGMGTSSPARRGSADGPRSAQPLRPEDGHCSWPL", "assay": "ELISA; lysate of hPD1-expressing cells coated on plate, scFv from stable 293A culture medium"}, "mouse PD1 (mPD1)": {"molecular_target": "T2, mouse PD1 (mPD1) (mouse, UniProt Q02242 25-288, limits assumed)", "T2 construct": "Stood in the ELISA as a lysate of cells expressing mPD1", "T2 sequence (looked up)": "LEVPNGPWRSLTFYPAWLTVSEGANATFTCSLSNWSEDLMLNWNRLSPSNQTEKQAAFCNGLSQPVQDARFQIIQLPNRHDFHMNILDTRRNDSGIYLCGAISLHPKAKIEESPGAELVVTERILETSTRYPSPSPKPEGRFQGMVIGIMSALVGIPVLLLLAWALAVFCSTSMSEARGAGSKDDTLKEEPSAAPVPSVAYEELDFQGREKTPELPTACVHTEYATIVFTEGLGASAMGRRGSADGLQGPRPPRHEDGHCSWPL", "assay": "ELISA; lysate of mPD1-expressing cells coated on plate, scFv from stable 293A culture medium"}},
  "data": [
    {"binder": "B1", "values": [
      {"measurement": "binding result", "setting": "human PD1 (hPD1)", "value": "binds"},
      {"measurement": "binding result", "setting": "mouse PD1 (mPD1)", "value": "binds"}
    ]}
  ]
}
